According to paper PMC7362310 (Molecular cell, 2020):
Each block holds one binder with its values, some of them ahead of it.

Columns and labels:
[1] = target: FLAG-tagged BRD4-S(a) purified from insect Sf9 cells (human, UniProt O60885-2 1-722); experiment: pull-down
[2] = target: FLAG-tagged BRD4-L purified from insect Sf9 cells (human, UniProt O60885-1 1-1362); experiment: pull-down

binding result [1]: binds | binding result [2]: binds
B1: FLAG-tagged EN2 purified from bacteria (natural protein, UniProt P19622 1-333, looked up)
chain: MEENDPKPGEAAAAVEGQRQPESSPGGGSGGGGGSSPGEADTGRRRALMLPAVLQAPGNHQHPHRITNFFIDNILRPEFGRRKDAGTCCAGAGGGRGGGAGGEGGASGAEGGGGAGGSEQLLGSGSREPRQNPPCAPGAGGPLPAAGSDSPGDGEGGSKTLSLHGGAKKGGDPGGPLDGSLKARGLGGGDLSVSSDSDSSQAGANLGAQPMLWPAWVYCTRYSDRPSSGPRSRKPKKKNPNKEDKRPRTAFTAEQLQRLKAEFQTNRYLTEQRRQSLAQELSLNESQIKIWFQNKRAKIKKATGNKNTLAVHLMAQGLYNHSTTAKEGKSDSE

binding result [1]: binds | binding result [2]: binds
B2: FLAG-tagged EN1 purified from bacteria (natural protein, UniProt Q05925 1-392, looked up)
chain: MEEQQPEPKSQRDSALGAAAAATPGGLSLSLSPGASGSSGSGSDGDSVPVSPQPAPPSPPAAPCLPPLAHHPHLPPHPPPPPPQHLAAPAHQPQPAAQLHRTTNFFIDNILRPDFGCKKEQPPPQLLVAAAARGGAGGGGRVERDRGQTAAGRDPVHPLGTRAPGAASLLCAPDANCGPPDGSQPAAAGAGASKAGNPAAAAAAAAAAVAAAAAAAAAKPSDTGGGGSGGGAGSPGAQGTKYPEHGNPAILLMGSANGGPVVKTDSQQPLVWPAWVYCTRYSDRPSSGPRTRKLKKKKNEKEDKRPRTAFTAEQLQRLKAEFQANRYITEQRRQTLAQELSLNESQIKIWFQNKRAKIKKATGIKNGLALHLMAQGLYNHSTTTVQDKDESE
